According to US20150184159A1, “USE OF COX-3 BINDING MOLECULES FOR MODULATING AUTOPHAGY” (priority 2013, published 2015):

T1: canine COX-3 (Canis lupus familiaris, UniProt Q8HZR1)
T1 sequence (Q8HZR1 1-633 isoform Q8HZR1-2): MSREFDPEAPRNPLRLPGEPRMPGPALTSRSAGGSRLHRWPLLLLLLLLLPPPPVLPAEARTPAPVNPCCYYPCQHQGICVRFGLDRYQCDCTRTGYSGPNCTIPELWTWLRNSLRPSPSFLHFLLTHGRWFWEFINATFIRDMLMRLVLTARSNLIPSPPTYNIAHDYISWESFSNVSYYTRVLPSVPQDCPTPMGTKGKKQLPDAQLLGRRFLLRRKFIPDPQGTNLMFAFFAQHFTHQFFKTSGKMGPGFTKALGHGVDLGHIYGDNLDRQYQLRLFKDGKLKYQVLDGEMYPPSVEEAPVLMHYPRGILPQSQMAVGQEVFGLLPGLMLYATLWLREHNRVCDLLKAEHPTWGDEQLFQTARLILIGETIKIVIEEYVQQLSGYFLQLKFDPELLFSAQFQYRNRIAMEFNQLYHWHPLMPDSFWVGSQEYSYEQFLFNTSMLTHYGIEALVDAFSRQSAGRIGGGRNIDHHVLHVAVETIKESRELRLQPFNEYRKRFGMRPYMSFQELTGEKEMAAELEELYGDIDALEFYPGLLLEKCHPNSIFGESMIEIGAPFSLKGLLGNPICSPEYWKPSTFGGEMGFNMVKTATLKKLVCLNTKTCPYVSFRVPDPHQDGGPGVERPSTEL


Assays:
[1] = target: T1, canine COX-3; details: cited from earlier work
[2] = target: C-terminal RFP labeled ATG9
[3] = system: encephalomyocarditis virus (EMCV); assay: EMCV replication in transfected CHO cells, plaque-forming assay; format: cell-based; details: compared to Empty vector
Text: The rCOX constructs being related to ancient unicellular COX and evidence showing their involvement in the formation of innate immune responsive autophagic structures. EMCV is a positive strand RNA picornavirus implicated in human febrile illness. Also, the mTOR small molecule inhibitor rapamycin is shown to stimulate protein synthesis of EMCV proteins (Ref) and that autophagy specifically is shown to promote EMCV viral replication. We infected rCOX or/and cNuc transfected/co-transfected CHO cells with EMCV to determine their influence in viral replication. The media was collected and plaque forming assays were then performed and plaques were counted compared to Empty vector plaque counts.
CHO cells were seeded to the night before infection to complete confluence. Cells were washed twice with DMEM F/12 media before infection. Virus were placed on top of cells and allowed to absorb for 1 hour angling the cells every 10 minutes to ensure cells were fully covered. After adsorption the media was remove and cells washed twice with DMEM F/12 media. Agar at 2% in PBS was melted and mixed with warm DMEM/F12 with 20% FBS and then laid on top of the cells. The virus was allowed to replicate for 36 hours and then 5 mg/mL of MTT in PBS was added to visualize the cells. Plaques were counted using light microscope.

Molecule	co-localisation by confocal microscopy (Pearson coefficient) (Pearson coefficient) [2]	further results
CC(=O)Nc1ccc(O)cc1 [acetaminophen]	–	effect on canine COX-3 [1]: specifically inhibited
FLAG tagged rc44 (translationally recoded rat COX-3 44 kD protein) (from UniProt Q63921) (enzyme)	0.928	–
FLAG tagged rc50 (translationally recoded rat COX-3 50 kD protein) (from UniProt Q63921) (enzyme)	0.954	–
FLAG tagged rc57 (translationally recoded rat COX-3 57 kD protein) (from UniProt Q63921) (enzyme)	0.973	–
r57: translationally recoded 57 kD rat COX-3 protein, expressed by transfection in CHO cells (protein) MRLVITVRSNLIPSPPTYNTAHDYISWESFSNVSYYTRILPSVPKDCPTPMGTKGKKQLPDIHLLAQRLLLRREFIPGPQGTNVLFAFFAQHFTHQFFKTSGKMGPGFTKALGHGVDLGHIYGDSLERQYHLRLFKDGKLKYQVLDGEVYPPSVEQASVLMRYPPGVPPEKQMAVGQEVFGLLPGLMLFSTIWLREHNRVCDLLKEEHPTWDDEQLFQTTRLILIGETIKIIIEEYVQHLSGYFLQLKFDPELLFRAQFQYRNRIALEFNHLYHWHPLMPDSFQVGSQEYSYEQFLFNTSMLVDYGVEALVDAFSRQRAGRIGGGRNFDYHVLHVAEDVIKESREMRLQSFNEYRKRFGLKPYTSFQEFTGEKEMAAELEELYGDIDALEFYPGLMLEKCQPNSLFGESMIEMGAPFSLKGLLGNPICSPEYWKPSTFGGDVGFNIVNTASLKKLVCLNTKTCPYVSFRVPDYPGDDGSVFVRPSTEL	–	inhibition of virion production [3]: 40%
r44: translationally recoded 44 kD rat COX-3 protein, expressed by transfection in CHO cells (protein) MGPGFTKALGHGVDLGHIYGDSLERQYHLRLFKDGKLKYQVLDGEVYPPSVEQASVLMRYPPGVPPEKQMAVGQEVFGLLPGLMLFSTIWLREHNRVCDLLKEEHPTWDDEQLFQTTRLILIGETIKIIIEEYVQHLSGYFLQLKFDPELLFRAQFQYRNRIALEFNHLYHWHPLMPDSFQVGSQEYSYEQFLFNTSMLVDYGVEALVDAFSRQRAGRIGGGRNFDYHVLHVAEDVIKESREMRLQSFNEYRKRFGLKPYTSFQEFTGEKEMAAELEELYGDIDALEFYPGLMLEKCQPNSLFGESMIEMGAPFSLKGLLGNPICSPEYWKPSTFGGDVGFNIVNTASLKKLVCLNTKTCPYVSFRVPDYPGDDGSVFVRPSTEL	–	number of EMCV virions [3]: doubled
